These results are taken from US20230074436A1 (DENALI THERAPEUTICS, published 2023).

Read-outs that look alike come from different tables or passages of the source.

In assay [1] the target is human alpha-synuclein oligomers (human, UniProt P37840 1-140). As to the kind of experiment: competition ELISA: oligomers titrated in solution against 0.6 nM antibody, free antibody read on aSyn-coated plate. For orientation: In an ELISA, binding on a coated surface is turned into a signal by an enzyme label.
Method: To measure the binding affinities of select antibodies toward oligomeric alpha-synuclein protein, purified antibodies were probed with different concentrations of human alpha-synuclein oligomers in solution, and the levels of unbound antibody were measured by ELISA analysis. In this experiment, 0.6 nM (0.1 pg/mL) of purified antibody was dissolved in phosphate-buffered saline (PBS) solution. […] The mixtures were gently shaken at room temperature for 1 hour to reach equilibrium. After that, these samples were transferred to an alpha-synuclein protein-coated ELISA plate, and antibody not bound to antigen in the previous solution was detected by direct ELISA.
Assay [2] has as its target T1, mouse alpha-synuclein (mouse, UniProt O55042 1-140). As to the kind of experiment: ELISA, coated mouse alpha-synuclein.
Method: (§1) 96-well Nunc plates were coated with 50 μL of recombinant human, mouse, or rat alpha-synuclein at a concentration of 1 μg/mL in PBS at 4° C. overnight. The plates were then washed three times with PBST and blocked with PBS containing 3% BSA at room temperature for 1 hour. Purified antibody was diluted by serial dilution methods, from 10 μg/mL to 0.6 ng/mL, and 50 μL of the antibody solution was added to the alpha-synuclein-coated wells. The plates were incubated for 1 hour at room temperature, then washed three times with PBST. Secondary detection antibody (goat anti-rat HRP (obtained from Southern Biotech)) was added 50 μL/well, 1:5,000 diluted in BSA-PBS solution. Plates were incubated for 1 hour at room temperature, then washed three times with PBST. Plates were subsequently developed with 50 μL/well of TMB substrate (Thermo Fisher) and quenched with 50 μL/well of 1 N sulfuric acid. The signal was quantified on a BioTek® plate reader at A450.
For assay [3], the target named is T2, human alpha-synuclein monomer (human, UniProt P37840 1-140). Briefly: direct ELISA on coated antigen.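 Also: plates coated with recombinant human, mouse or rat alpha-synuclein, purified antibody titrated 10 µg/mL down to 0.6 ng/mL for 1 h, bound antibody detected by anti-rat HRP with TMB.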
Method: as §1
For assay [4], the target named is T3, rat alpha-synuclein (rat, UniProt P37377 1-140). As to the kind of experiment: direct ELISA on coated antigen.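 Also: plates coated with recombinant human, mouse or rat alpha-synuclein, purified antibody titrated 10 µg/mL down to 0.6 ng/mL for 1 h, bound antibody detected by anti-rat HRP with TMB.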
Method: as §1
Assay [5] has as its target T1, mouse alpha-synuclein. Briefly: direct ELISA on coated antigen.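 Also: plates coated with recombinant human, mouse or rat alpha-synuclein, purified antibody titrated 10 µg/mL down to 0.6 ng/mL for 1 h, bound antibody detected by anti-rat HRP with TMB.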
Method: as §1
Assay [6] deals with T1, mouse alpha-synuclein. Briefly: direct ELISA, plate coated with 1 µg/mL recombinant mouse alpha-synuclein, antibody titrated, anti-rat HRP, A450.
Method: as §1
Assay [7] concerns the target T4, alpha-synuclein peptide 1-95 (human).
T4 construct: synthetic peptide coated on plate
As to the kind of experiment: ELISA, plate coated with the peptide or protein, antibody titrated, anti-rat HRP, A450.
Method: (§2) 96-well Nunc plates were coated with 1 pg/mL of the indicated synthetic peptide in PBS 50 μL/well overnight. The plates were washed three times with PBST, then blocked with 150 μL of 3% BSA in PBS for 1 hour. Purified antibody was diluted by serial dilution methods, from 10 pg/mL to 0.6 ng/ml, and 50 μL of the antibody solution was added to the peptide-coated wells. The plates were incubated for 1 hour at room temperature, then washed three times with PBST. Secondary detection antibody, goat anti-rat HRP (obtained from Southern Biotech) 1:5,000 diluted in BSA-PBS, was added to a concentration of 50 μL/well. Plates were incubated for one hour and washed three times with PBST. Plates were then developed with 50 μL/well of TMB substrate (obtained from Thermo Fisher) and quenched with 50 μL/well of 1 N sulfuric acid. The signal was quantified on a BioTek® plate reader at A450.

For assay [8], the target named is T5, alpha-synuclein peptide 1-61 (human).
T5 construct: synthetic peptide coated on plate
The assay is described as above.
Method: as §2

The target in assay [9] is T1, mouse alpha-synuclein. The assay is described as above.
Method: as §2
The target of assay [10] is alpha-synuclein peptide 1-112 (human). The description is as above.
Method: as §2
Assay [11] has as its target T4, alpha-synuclein peptide 1-95. As to the kind of experiment: peptide ELISA.
Method: as §2
For assay [12], the target named is T5, alpha-synuclein peptide 1-61. As to the kind of experiment: peptide ELISA.
Method: as §2
Assay [13] concerns the target human alpha-synuclein pre-formed fibrils (human, UniProt P37840 1-140). As to the kind of experiment: competition ELISA: fibrils titrated in solution against 0.6 nM antibody, free antibody read on aSyn-coated plate.
Method: Purified antibody was probed with different concentrations of alpha-synuclein fibrils in solution, and the levels of unbound antibody were measured by ELISA analysis. In this experiment, 0.6 nM (0.1 μg/mL) of purified antibody was dissolved in phosphate-buffered saline (PBS) solution. […] The mixtures were gently shaken at room temperature for 1 hour to reach equilibrium. After that, these samples were transferred to an alpha-synuclein protein-coated ELISA plate and incubated for 5 minutes. During this short incubation, antibody that was not associated to antigen in the previous solution could instead bind onto the plate, and thus be quantified using a standard ELISA technique. By this means, it was possible to determine the amount of free antibody in the initial mixture with alpha-synuclein fibrils at indicated concentrations.
The target in assay [14] is T6, alpha-synuclein peptide 61-140 (human).
T6 construct: synthetic peptide coated on plate
Briefly: peptide ELISA, coated fragment.
Method: as §2

Assay [15] has as its target T7, alpha-synuclein peptide 95-140 (human).
T7 construct: synthetic peptide coated on plate
As to the kind of experiment: peptide ELISA, coated fragment.
Method: as §2

The target in assay [16] is alpha-synuclein peptide 1-112 (human). Briefly: peptide ELISA, coated fragment.
Method: as §2
Assay [17] concerns the target T2, human alpha-synuclein monomer. As to the kind of experiment: ELISA, coated human alpha-synuclein.
Another assay concerns the target T8, gamma-synuclein protein (human, UniProt O76070 1-127).
T8 construct: species read from 'recombinant human alpha-synuclein protein, beta-synuclein protein, and gamma-synuclein protein'
Briefly: ELISA on coated synuclein, 1 ug/mL.

A further assay deals with T9, beta-synuclein protein (human, UniProt Q16143 1-134).
T9 construct: species read from 'recombinant human alpha-synuclein protein, beta-synuclein protein, and gamma-synuclein protein'
As to the kind of experiment: ELISA on coated synuclein, 1 ug/mL.

Assay [18] addresses T2, human alpha-synuclein monomer. As to the kind of experiment: SPR (Biacore), antibody captured, monomer injected, 1:1 fit. (In general: In SPR one partner is held on a chip, and binding of the other changes the refractive index at the surface.)
Method: (§3) Anti-mouse Fc antibody (obtained from GE Healthcare) was immobilized on the surface of a CM5 chip (obtained from GE Healthcare) through amine-coupling to reach about 6,000 to 8,000 response units (RU). The surface was activated by injection of a mixture of 1-ethyl-3-(3-dimethylaminopropyl)-carbodiimide (EDC) and N-hydroxysuccinimide (NETS), both obtained from GE Healthcare, for 7 minutes at room temperature. […] Both injections were done at room temperature.
(§4) Purified rat anti alpha-synuclein antibody (10 μg/mL) was injected at room temperature and captured to reach 1,000 to 2,000 RU. […] Sensorgrams were fitted using a 1:1 Langmuir model to estimate kₒₙ and koff.
Assay [19] has the same target. As to the kind of experiment: direct ELISA, plate coated with 1 µg/mL recombinant human alpha-synuclein, antibody titrated, anti-rat HRP, A450.
Method: as §1
For assay [20], the target named is alpha-synuclein phosphorylated at serine 129 (human, UniProt P37840 1-140). As to the kind of experiment: SPR (Biacore), antibody captured, p129-Syn injected.
Method: as §3, §4
Assay [21] deals with T6, alpha-synuclein peptide 61-140. As to the kind of experiment: ELISA, plate coated with the peptide or protein, antibody titrated, anti-rat HRP, A450.
Method: as §2
Assay [22] concerns the target T4, alpha-synuclein peptide 1-95. The assay is described as above. The source holds these as a separate data set.
Method: as §2
Assay [23] concerns the target T5, alpha-synuclein peptide 1-61. The assay is described as above. This is another data set of the same source.
Method: as §2
Assay [24] has as its target T2, human alpha-synuclein monomer. Described as above.
Method: as §2
Assay [25] deals with T7, alpha-synuclein peptide 95-140. Described as above.
Method: as §2
For assay [26], the target named is alpha-synuclein peptide 1-112 (human). The assay is described as above. This is another data set of the same source.
Method: as §2
For assay [27] the target is unchanged. As to the kind of experiment: peptide ELISA.
Method: as §2
Assay [28] concerns the target T5, alpha-synuclein peptide 1-61. As to the kind of experiment: ELISA, plate coated with the peptide or protein, antibody titrated, anti-rat HRP, A450. The source holds these as a separate data set.
Method: as §2
In assay [29] the target is T7, alpha-synuclein peptide 95-140. The assay is described as above. The source holds these as a separate data set.
Method: as §2
Assay [30] deals with T3, rat alpha-synuclein. As to the kind of experiment: direct ELISA, plate coated with 1 µg/mL recombinant rat alpha-synuclein, antibody titrated, anti-rat HRP, A450.
Method: as §1
Assay [31] concerns the target T6, alpha-synuclein peptide 61-140. As to the kind of experiment: ELISA, plate coated with the peptide or protein, antibody titrated, anti-rat HRP, A450. The source holds these as a separate data set.
Method: as §2
For assay [32], the target named is T4, alpha-synuclein peptide 1-95. Described as above. The source holds these as a separate data set.
Method: as §2
Assay [33] concerns the target T5, alpha-synuclein peptide 1-61. The description is as above. The source holds these as a separate data set.
Method: as §2
In assay [34] the target is T2, human alpha-synuclein monomer. The assay is described as above. The source holds these as a separate data set.
Method: as §2
Assay [35] deals with T7, alpha-synuclein peptide 95-140. The assay is described as above. The source holds these as a separate data set.
Method: as §2
Assay [36] has as its target T1, mouse alpha-synuclein. Described as above. This is another data set of the same source.
Method: as §2

Method for beta-synuclein protein: (§5) Binding to different synuclein species was tested using a method similar to the ELISA format described above. Briefly, recombinant human alpha-synuclein protein, beta-synuclein protein, and gamma-synuclein protein was coated onto 96-well Nunc plates at 1 μg/mL. The plates were washed with PBST and blocked with 150 μL of 3% BSA in PBS. The serial dilutions of purified antibodies were applied onto the plate, and the associated antibody was detected with goat anti-rat HRP secondary antibody.
Method for gamma-synuclein protein: as §5

B1: 22E11 (antibody, IgG1, V domains shown)
VH: AVQLVESGGGLVQPKESLKISCAASGFTFSTAAMYWVRQAPGKGLEWVTRIRTKPNNYATYYADSVKGRFTISRDDSKSMVYLQMDNLKTEDTAMYYCTADYYDGTPFAYWGQGTLVTVSS
VL: AVVMTQTPVSLSVSLGGQVSISCRSSQSLVHNNGITYLSWYLQKPGQSPQLPIYKVSNRFSGFSDRFSGGGSGTDFTLKISRVEPDDLGLYYCGQGTQYPYTFGAGTKLELK
notes: also called clone 22E11
For B1, the IC50 in [1] is 6.96 nM; in [13], 28.1 nM. The “antibody concentration at which ELISA is positive” value (from here on “antibody concentration”) was 40 to 160 ng/mL in the assay with mouse alpha-synuclein [2]; over 2600 ng/mL in assay [11]; over 2600 ng/mL in [12]; under 40 ng/mL in [14]; under 40 ng/mL in assay [15]; 160 to 640 ng/mL in [16]. Also, the “antibody concentration” value in assay [17] was under 40 ng/mL. Besides, the “Bmax (O.D. at 450 nm)” value in assay [3] came out at 1.05 OD; with rat alpha-synuclein [4] it was 0.5 OD; with mouse alpha-synuclein [5], 0.58 OD. The 50% effective concentration (EC50) in assay [3] was 0.4 nM; with rat alpha-synuclein [4], 1 nM; with mouse alpha-synuclein [5], 0.26 nM. Besides, the half-maximal effective concentration (EC50 (read off the curve)) (with mouse alpha-synuclein [6]; with mouse alpha-synuclein [9]; in assay [10]) was about 0.3 µg/mL each time. Moreover, the binding result in [7] and in assay [8] was “no binding (tested: 10 µg/ml (1 on the log axis))” throughout.

B2: 1H5 (antibody, rat IgG2b, V domains shown)
VH: AVQLVESGGGLVQPKESLKISCAASGFTFSDAAMYWVRQAPGKGLELVARIRTKPNNYATYYADSVKGRFTISRDDSKSMVYLQMGNLKTEDTAMYYCSADFHYFDYWGQGVMVTVSS
VL: DIQMTQSPSVLSASVGDRVTLSCKAGQNINKNLDWYQQKLGEAPKLLISFTNNLQTGVPSRFSGSGSGSDYTLTISSLQPEDVATYYCYQYNSGWTFGGGTKLELK
notes: also called clone 1H5
B2: the IC50 in assay [1] stood at 30.7 nM; in assay [13], 5.86 nM. The binding result with gamma-synuclein protein was “no binding”; in the assay with beta-synuclein protein it was “no binding”; in [22] it was “no binding (tested: 10 µg/ml (1 on the log axis))”; in assay [23], “no binding (tested: 10 µg/ml (1 on the log axis))”; in [26], “no binding (tested: 10 µg/ml (1 on the log axis))”. For the same molecule, the “antibody concentration” value with mouse alpha-synuclein [2] is 640 to 2600 ng/mL; in [11] it was over 2600 ng/mL; in [12] it was over 2600 ng/mL; in assay [27], over 2600 ng/mL; in assay [14], under 40 ng/mL; in assay [15] it was under 40 ng/mL. Further, the “antibody concentration” value in [17] is under 40 ng/mL. In addition, the “Bmax (O.D. at 450 nm)” value in assay [3] amounted to 1.14 OD; with rat alpha-synuclein [4] it was 0.2 OD; with mouse alpha-synuclein [5], 0.16 OD. Also, the 50% effective concentration (EC50) was found to be 0.15 nM in [3], 2.97 nM with rat alpha-synuclein [4] and 5.86 nM with mouse alpha-synuclein [5]. In addition, the equilibrium dissociation constant (Kd) in assay [18] is 16.2 nM; in assay [20] it was 23.7 nM. Moreover, the dissociation rate constant (koff) in assay [18] is 0.00169 s⁻¹; in [20], 0.00113 s⁻¹. Also, the results for the on-rate (kon) in assay [18] and in assay [20] were 104000 M⁻¹ s⁻¹ and 47500 M⁻¹ s⁻¹, respectively. The “EC50 (read off the curve)” value in assay [19] is about 0.2 µg/mL; in [21], about 0.2 µg/mL; in assay [24], about 0.2 µg/mL; in assay [25], about 0.3 µg/mL.

B3: 16F3 (antibody, IgG2a, V domains shown)
VH: AVQLVESGGGLVQPKESLKISCAASGFTFSNGAMNWVRQAPGKGLEWVARIRTKPNNYATYYADSVKGRFTISRDDSKSMVYLQMDDLKTEDTAMYYCTADGATPFAYWGQGTLVTVSS
VL: DVVLTQTPPTLSATIGQSVSISCRSSQSLLHSNGNTYLHWLLQRPGQSPQLLIYLVSRLESGVPNRFSGSGSGTDFTLKISGVEAEDLGVYYCVQGTHAPFTFGSGTKLEIK
notes: also called clone 16F3
For the molecule B3, the binding result in assay [28] is recorded as “no binding (tested: 10 µg/ml (1 on the log axis))”. In addition, the “EC50 (read off the curve)” value in [29] is about 0.3 µg/mL. The results for the “antibody concentration” value in [12] and in assay [15] were over 2600 ng/mL and under 40 ng/mL, respectively.

B4: 18B4 (antibody, IgG2b, V domains shown)
VH: EVQLVESGGGLVQPGRSLKLSCAASGFTFSSFAMAWVRQAPKKGLEWVATITSGGSKTYYPDSVKGRFTISRDNAKSTLYLQMDSLRSEDTATYYCAKGYFDYWGQGVMVTVSS
VL: DVVLTQTPPTLSATIGQSVSISCRSSQSLLHSNGNTYLHWLLQRPGQSPQLLIYLVSRLESGVPNRFSGSGSGTDFTLKISGVEAEDLGVYYCVQGTHAPLTFGSGTKLEIK
notes: also called clone 18B4
B4: the “EC50 (read off the curve)” value was about 0.4 µg/mL with rat alpha-synuclein [30]; about 0.08 µg/mL with mouse alpha-synuclein [6]; about 0.06 µg/mL in assay [19]; about 0.08 µg/mL in assay [31]; about 0.06 µg/mL in assay [34]; about 0.07 µg/mL in assay [35]. The “EC50 (read off the curve)” value with mouse alpha-synuclein [36] is about 0.08 µg/mL. For the same molecule, the IC50 in [1] came out at 37.6 nM; in [13], 85.7 nM. Further, the “antibody concentration” value with mouse alpha-synuclein [2] is 40 to 160 ng/mL; in assay [11], over 2600 ng/mL; in [12], over 2600 ng/mL; in assay [14] it was under 40 ng/mL; in assay [15], under 40 ng/mL; in [16], 160 to 640 ng/mL. Further, the “antibody concentration” value in assay [17] is under 40 ng/mL. The “Bmax (O.D. at 450 nm)” value is 1.36 OD in assay [3] and 1.21 OD in the assay with rat alpha-synuclein [4]. Further, the 50% effective concentration (EC50) in [3] was found to be 0.05 nM; in the assay with rat alpha-synuclein [4], 0.3 nM; in the assay with mouse alpha-synuclein [5], 0.08 nM. Also, the binding result in assay [32] and in [33] was “no binding (tested: 10 µg/ml (1 on the log axis))” throughout.

One may read the IC50 as the midpoint of a concentration-inhibition curve. Low readings indicate higher potency, high ones lower potency. In general, EC50 refers to the midpoint of the concentration-response curve. A low value points to higher potency in that assay. Usually EC50 (read off the curve) stands for the concentration giving half of the maximal effect. As a reminder, the Kd is the concentration at which binding is half-saturated. A high value points to weaker binding. Usually koff stands for the rate constant with which the complex falls apart. For orientation: kon means the second-order rate constant of association. Low values mean slower complex formation, high ones faster complex formation.
